# Assay results: the Human Domainome abundance scans (Beltran et al. 2025)
# ± gives the uncertainty stated by the source.
# B1: RNA-binding E3 ubiquitin-protein ligase MEX3C, residues 325 to 391; numbered along this chain, Q5U5Q3 (parent)
# chain: GQTTVQVRVPYRVVGLVVGPKGATIKRIQQQTHTYIVTPSRDKEPVFEVTGMPENVDRAREEIEMHI
# Variants of: B1
# Test: abundance fitness (aPCA) (normalised: wild type 0, dead -1); higher = more abundant; growth selection in yeast, the domain comes from the species named
# Details: Homo sapiens
row,Variant,abundance fitness
1,GQTTVQVRVPYRVVGLVVGPKGATIKRIQQQTHTYIVTPSRDKEPVPEVTGMPENVDRAREEIEMHI [F47P],-0.974 ± 0.32
2,GQTTVQVRVPYRVVGLVVGPKGATIKRIQQQTHTYIVTPSRDKEPVGEVTGMPENVDRAREEIEMHI [F47G],-0.661 ± 0.07
3,GQTTVQVRVPYRVVGLVVGPKGATIKRIQQQTHTYIVTPSRDKEPVDEVTGMPENVDRAREEIEMHI [F47D],-1.01 ± 0.35
4,GQTTVQVRVPYRVVGLVVGPKGATIKRIQQQTHTYIVTPSRDKEPVSEVTGMPENVDRAREEIEMHI [F47S],-0.835 ± 0.14
5,GQTTVQVRVPYRVVGLVVGPKGATIKRIQQQTHTYIVTPSRDKEPVCEVTGMPENVDRAREEIEMHI [F47C],-0.411 ± 0.13
6,GQTTVQVRVPYRVVGLVVGPKGATIKRIQQQTHTYIVTPSRDKEPVQEVTGMPENVDRAREEIEMHI [F47Q],-0.648 ± 0.19
7,GQTTVQVRVPYRVVGLVVGPKGATIKRIQQQTHTYIVTPSRDKEPVAEVTGMPENVDRAREEIEMHI [F47A],-0.889 ± 0.19
8,GQTTVQVRVPYRVVGLVVGPKGATIKRIQQQTHTYIVTPSRDKEPVIEVTGMPENVDRAREEIEMHI [F47I],-0.853 ± 0.35
9,GQTTVQVRVPYRVVGLVVGPKGATIKRIQQQTHTYIVTPSRDKEPVREVTGMPENVDRAREEIEMHI [F47R],-0.706 ± 0.074
10,GQTTVQVRVPYRVVGLVVGPKGATIKRIQQQTHTYIVTPSRDKEPVMEVTGMPENVDRAREEIEMHI [F47M],-0.808 ± 0.18
11,GQTTVQVRVPYRVVGLVVGPKGATIKRIQQQTHTYIVTPSRDKEPVNEVTGMPENVDRAREEIEMHI [F47N],-0.442 ± 0.22
12,GQTTVQVRVPYRVVGLVVGPKGATIKRIQQQTHTYIVTPSRDKEPVEEVTGMPENVDRAREEIEMHI [F47E],-0.658 ± 0.11
13,GQTTVQVRVPYRVVGLVVGPKGATIKRIQQQTHTYIVTPSRDKESVFEVTGMPENVDRAREEIEMHI [P45S],-0.387 ± 0.072
14,GQTTVQVRVPYRVVGLVVGPKGATIKRIQQQTHTYIVTPSRDKEQVFEVTGMPENVDRAREEIEMHI [P45Q],-0.458 ± 0.13
15,GQTTVQVRVPYRVVGLVVGPKGATIKRIQQQTHTYIVTPSRDKERVFEVTGMPENVDRAREEIEMHI [P45R],-0.564 ± 0.076
16,GQTTVQVRVPYRVVGLVVGPKGATIKRIQQQTHTYIVTPSRDKEIVFEVTGMPENVDRAREEIEMHI [P45I],-0.622 ± 0.29
17,GQTTVQVRVPYRVVGLVVGPKGATIKRIQQQTHTYIVTPSRDKEMVFEVTGMPENVDRAREEIEMHI [P45M],-0.467 ± 0.16
18,GQTTVQVRVPYRVVGLVVGPKGATIKRIQQQTHTYIVTPSRDKELVFEVTGMPENVDRAREEIEMHI [P45L],-0.479 ± 0.13
19,GQTTVQVRVPYRVVGLVVGPKGATIKRIQQQTHTYIVTPSRDKEVVFEVTGMPENVDRAREEIEMHI [P45V],-0.919 ± 0.17
20,GQTTVQVRVPYRVVGLVVGPKGATIKRIQQQTHTYIVTPSRDKEKVFEVTGMPENVDRAREEIEMHI [P45K],-0.42 ± 0.18

row,Variant,abundance fitness
1,GQTTVQVRVPYRVVGLVVGPKGATIKRIQQQTHTYIVTPSRDKETVFEVTGMPENVDRAREEIEMHI [P45T],-0.493 ± 0.12
2,GQTTVQVRVPYRVVGLVVGPKGATIKRIQQQTHTYIVTPSRDKENVFEVTGMPENVDRAREEIEMHI [P45N],-0.821 ± 0.27
3,GQTTVQVRVPYRVVGLVVGPKGATIKRIQQQTHTYIVTPSRDKEPMFEVTGMPENVDRAREEIEMHI [V46M],-0.361 ± 0.081
4,GQTTVQVRVPYRVVGLVVGPKGATIKRIQQQTHTYIVTPSRDKEPIFEVTGMPENVDRAREEIEMHI [V46I],-0.093 ± 0.072
5,GQTTVQVRVPYRVVGLVVGPKGATIKRIQQQTHTYIVTPSRDKEPCFEVTGMPENVDRAREEIEMHI [V46C],-0.645 ± 0.14
6,GQTTVQVRVPYRVVGLVVGPKGATIKRIQQQTHTYIVTPSRDKEPQFEVTGMPENVDRAREEIEMHI [V46Q],-0.621 ± 0.13
7,GQTTVQVRVPYRVVGLVVGPKGATIKRIQQQTHTYIVTPSRDKEPLFEVTGMPENVDRAREEIEMHI [V46L],-0.332 ± 0.061
8,GQTTVQVRVPYRVVGLVVGPKGATIKRIQQQTHTYIVTPSRDKEPEFEVTGMPENVDRAREEIEMHI [V46E],-0.767 ± 0.11
9,GQTTVQVRVPYRVVGLVVGPKGATIKRIQQQTHTYIVTPSRDKEPKFEVTGMPENVDRAREEIEMHI [V46K],-0.321 ± 0.1
10,GQTTVQVRVPYRVVGLVVGPKGATIKRIQQQTHTYIVTPSRDKEPYFEVTGMPENVDRAREEIEMHI [V46Y],-0.146 ± 0.11
11,GQTTVQVRVPYRVVGLVVGPKGATIKRIQQQTHTYIVTPSRDKEPPFEVTGMPENVDRAREEIEMHI [V46P],-0.66 ± 0.1
12,GQTTVQVRVPYRVVGLVVGPKGATIKRIQQQTHTYIVTPSRDKEPTFEVTGMPENVDRAREEIEMHI [V46T],-0.526 ± 0.1
13,GQTTVQVRVPYRVVGLVVGPKGATIKRIQQQTHTYIVTPSRDKEPAFEVTGMPENVDRAREEIEMHI [V46A],-0.676 ± 0.083
14,GQTTVQVRVPYRVVGLVVGPKGATIKRIQQQTHTYIVTPSRDKEPWFEVTGMPENVDRAREEIEMHI [V46W],-0.662 ± 0.099
15,GQTTVQVRVPYRVVGLVVGPKGATIKRIQQQTHTYIVTPSRDKEPHFEVTGMPENVDRAREEIEMHI [V46H],-0.579 ± 0.13
16,GQTTVQVRVPYRVVGLVVGPKGATIKRIQQQTHTYIVTPSRDKEPSFEVTGMPENVDRAREEIEMHI [V46S],-0.774 ± 0.11
17,GQTTVQVRVPYRVVGLVVGPKGATIKRIQQQTHTYIVTPSRDKEPGFEVTGMPENVDRAREEIEMHI [V46G],-0.7 ± 0.07
18,GQTTVQVRVPYRVVGLVVGPKGATIKRIQQQTHTYIVTPSRDKEPFFEVTGMPENVDRAREEIEMHI [V46F],-0.503 ± 0.16
19,GQTTVQVRVPYRVVGLVVGPKGATIKRIQQQTHTYIVTPSRDKEPRFEVTGMPENVDRAREEIEMHI [V46R],-0.607 ± 0.078
20,GQTTVQVRVPYRVVGLVVGPKGATIKRIQQQTHTYIVTPSRDKEPNFEVTGMPENVDRAREEIEMHI [V46N],-0.62 ± 0.24
